Residue numbers refer to the chain shown, from its start. Numbers in names are those of the source. Where “and” joins values, the source holds several entries; their conditions need not be identical. Equal values may be shown once.

Usually Kd stands for the free concentration of one partner at which half of the binding sites on the other are occupied at equilibrium, for simple one-to-one binding. By koff is commonly meant the rate constant with which the complex falls apart. Higher therefore signals fast dissociation. As usually defined, the kon is the second-order rate constant of association. The low end stands for slower complex formation, the high end for faster complex formation. By EC50 (read off the curve) is commonly meant the concentration at which the effect is half-maximal. The low end stands for greater potency, the high end for weaker potency.

Experiment [1] addresses single-chain NKG2A-CD94-mFc construct (human) (UniProt Q13241). Kind of experiment: SPR (Biacore T100); sc-NKG2A-CD94-mFc amine-coupled to CM5 chip, antibody 0.157-2.5 nM as analyte. In general terms: In SPR one partner is held on a chip, and binding of the other changes the refractive index at the surface.
The target is the same in experiment [2]. Kind of experiment: SPR (Biacore T100); sc-NKG2A-CD94-mFc on CM5 chip, mutant at 0.75 nM or 1.5 nM.
For experiment [3], the target named is T1, CD94/NKG2A on cells (Ba/F3-CD94/NKG2A; NKL cells) (human, UniProt Q13241 1-179).
T1 construct: whole, on cells
T1 sequence (chain, as listed by the source limits assumed, chain 1 of 2): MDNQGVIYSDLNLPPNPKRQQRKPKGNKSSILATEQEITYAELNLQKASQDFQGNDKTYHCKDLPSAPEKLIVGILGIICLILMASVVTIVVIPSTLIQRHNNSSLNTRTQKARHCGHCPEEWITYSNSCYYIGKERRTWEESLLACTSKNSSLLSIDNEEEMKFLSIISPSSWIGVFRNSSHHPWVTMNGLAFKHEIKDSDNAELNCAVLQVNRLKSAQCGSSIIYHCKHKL
T1 sequence (Q13241 whole entry, chain 2 of 2): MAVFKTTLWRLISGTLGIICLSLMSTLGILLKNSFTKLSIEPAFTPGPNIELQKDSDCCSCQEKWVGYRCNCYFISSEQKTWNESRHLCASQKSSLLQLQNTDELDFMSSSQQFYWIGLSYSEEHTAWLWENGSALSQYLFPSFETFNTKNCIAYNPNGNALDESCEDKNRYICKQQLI
Kind of experiment: flow cytometry on Ba/F3-CD94/NKG2A cells, APC-conjugated secondary antibody. How it is done:
The strength and specificity of humZ270 binding to CD94/NKG2A was tested in flow-cytometry, by analyzing the binding of in HEK293 cells produced wild-type Z270 (recZ270), chimeric Z270 with human IgG4 (chimZ270) or humanized Z270 (humZ270VL1/VH1) to Ba/F3 cells stably over-expressing either CD94/NKG2A or CD94/NKG2C. For this purpose, Ba/F3-CD94/NKG2A and -C cells were incubated with various concentrations of Z270 variants in tissue-culture medium containing 2% FCS, for at least 30 minutes on ice. Subsequently cells were washed, and the cells incubated in similar medium with APC conjugated secondary Ab's, again for at least 30 minutes on ice. After two times washing with ice-cold PBS, the binding of mAb's to cells was visualized using a BD Biosciences FACSarray.
On the technique in general: Flow cytometry measures light scatter and fluorescence of single cells or particles in a stream.

The target in experiment [4] is T1, CD94/NKG2A on cells (Ba/F3-CD94/NKG2A; …). Kind of experiment: flow cytometry on Ba/F3-CD94/NKG2A cells, no HLA-E tetramer pre-incubation, APC-conjugated secondary antibody. How it is done: To test whether humZ270VL1/VH1 prevents ligand (i.e. HLA-E) binding to CD94/NKG2A, we analyzed whether humZ270 could prevent the binding of HLA-E tetramers to CD94/NKG2A over-expressing Ba/F3 cells (Ba/F3-CD94/NKG2A). For this, Ba/F3-CD94/NKG2A were incubated with 1) various concentrations of humZ270 or 2) first incubated with a saturing concentration of HLA-E tetramers (4.7 μg/ml) and then incubated with various concentrations of humZ270. All incubations were performed in tissue-culture medium containing 2% FCS, on ice. Subsequently, cells were incubated with APC-conjugated secondary antibodies specific for mouse Ab's, and analyzed by flow cytometry using a BD Biosciences FACSarray.

For experiment [5] the target is unchanged. Put plainly: flow cytometry on Ba/F3-CD94/NKG2A cells, APC-conjugated secondary antibody specific for human antibodies. How it is done:
The specificity and efficacy of humZ270VL1/VH1, and various humZ270VL1/VH1 variants with back-mutations in the variable light (VL) or variable heavy (VH) regions were tested for binding to CD94/NKG2A in flow-cytometry. For this, Ba/F3-CD94/NKG2A cells were incubated with humZ270-L46F (VL), humZ270-148V (VL), humZ270-L46F/148V (VL), humZ270-V5Q (VH), humZ270-M69L (VH), humZ270-T71V (VH), humZ270-T73K (VH), humZ270-T75S (VH), humZ270-V5Q/M69L/T71V/T73K/T75S (VH), humZ270-M69L/T71V/T73K/T75S (VH) or two different batches of humZ270VL1/VH1 without back-mutations (“DK” and “CHN”). For this purpose, Ba/F3-CD94/NKG2A or -C cells were incubated with various concentrations of the humZ270 variants in tissue-culture medium containing 2% FCS, for at least 30 minutes on ice. The cells were then washed, and incubated in similar medium with APC conjugated secondary antibodies specific for human antibodies, again for at least 30 minutes on ice. After two times washing with ice-cold PBS, the binding of secondary antibodies to cells was visualized using a BD Biosciences FACSarray.

B1: chimeric Z270 antibody (antibody, human IgG4, V domains shown)
VH: QVQLQQPGAELVRPGASVKLSCKASGYTFTSYWMNWVKQRPEQGLQWIGRIDPYDSETHYSQKFKDKAILTVDKSSSTAYMRLSSLTSEDSAVYYCARGGYDFDVGTLYWFFDVWGAGTTVTVS
VL: DIQMTQSPASLSASVGETVTITCRASENIYSYLAWYQQKQGKSPQFLVYNAKTLAEGVPSRFSGSGSGTQFSLKINSLQPEDFGSYYCQHHYGTPRTFGGGTKLEIK
Consider B1, for which, in experiment [1], the Kd turned out to be 0.0498 nM, the koff was 0.000397 s⁻¹ and the kon was determined as 7.97e+06 M⁻¹ s⁻¹.

B2: Z270VH alanine mutant R94A (antibody, name in Kabat numbering, V domains shown)
VH: B1 VH with R98A
VL: B1 VL
B2 returned a relative binding (binding level in RU divided by that of chimZ270) in experiment [2] of 20%.

B3: wild-type Z270 produced in HEK293 cells (recZ270) (antibody, mouse IgG1, V domains shown)
VH: B1 VH
VL: B1 VL
notes: also called recombinant Z270
Regarding B3, the “EC50 (read off the curve)” value in experiment [3] was roughly 1 ng/mL.

B4: humZ270VL1/VH1 (antibody, human IgG4, V domains shown)
VH: QVQLVQSGAEVKKPGASVKVSCKASGYTFTSYWMNWVRQAPGQGLEWMGRIDPYDSETHYAQKLQGRVTMTTDTSTSTAYMELRSLRSDDTAVYYCARGGYDFDVGTLYWFFDVWGQGTTVTVS
VL: DIQMTQSPSSLSASVGDRVTITCRASENIYSYLAWYQQKPGKAPKLLIYNAKTLAEGVPSRFSGSGSGTDFTLTISSLQPEDFATYYCQHHYGTPRTFGGGTKVEIK
notes: No back-mutations; also called hZ270VL1/VH1; huZ270 with a humZ270VH1 heavy chain
As to B4, the “EC50 (read off the curve)” value in experiment [4] was roughly 0.03 µg/mL. In experiment [1], this molecule displayed a dissociation constant Kd of 0.0665 nM, a koff of 0.000498 s⁻¹ and a kon of 7.49e+06 M⁻¹ s⁻¹. Besides, in experiment [5], the “EC50 (read off the curve)” value was ~10 ng/mL and ~8 ng/mL.

These data come from US20170281809A1 (Novo Nordisk, published 2017).
